Among the data in the Immune Epitope Database (IEDB) are Kd values, retold here.

pKd: −log10 of the molar value.

Among the targets are HLA-A*33:01; HLA-A*31:01; HLA-A*68:01; HLA-A*11:01; HLA-A*03:01.
Common to all, as to test: IEDB peptide-MHC binding, purified MHC/competitive/radioactivity; filed as Kd, often an IC50 or EC50 that approximates it; ≥ and ≤ were set here for values at or beyond the usual limits of such assays
Where [1] appears, read: source organism: SARS coronavirus Tor2.
Setting [2] is: source organism: Dengue virus 1 Brazil/97-11/1997.
Setting [3] is: source organism: Dengue virus 4 Philippines/H241/1956.
Setting [4] is: source organism: Vaccinia virus WR.
Setting [5] is: source organism: Dengue virus 2 Jamaica/1409/1983.
[6] abbreviates: source organism: Mammarenavirus machupoense.
[7] abbreviates: source organism: Mammarenavirus whitewaterense.
Setting [8] is: source organism: Dengue virus 3 Martinique/1243/1999.
The mark [9] stands for this setting: source organism: Dengue virus 3 Singapore/8120/1995.

For the sequence YMSALNHTK, the pKd (commonly the negative decadic logarithm of the Kd, by convention in mol/L) is 5.95 with HLA-A*33:01 (setting [1]); 6.19 in the assay with HLA-A*31:01 (setting [1]); 8.46 with HLA-A*68:01 (setting [1]); 7.32 with HLA-A*11:01 (setting [1]); 6.97 with HLA-A*03:01 (setting [1]).
As for VTFKTAHAK, the values for the pKd with HLA-A*68:01 (setting [2]), with HLA-A*11:01 (setting [2]) and with HLA-A*03:01 (setting [2]) were 7.36, 7.05 and 8.38, respectively.
With RMLNILNGRK, in the assay with HLA-A*03:01 (setting [3]), the pKd was 7.86.
As to RVIDPRRCLK, the pKd with HLA-A*31:01 (setting [2]) is 9.12; in the assay with HLA-A*68:01 (setting [2]) it was 7.55; with HLA-A*03:01 (setting [2]), 8.06.
Take TFIDVHIPK: the pKd is 8.98 with HLA-A*33:01 (setting [4]); 8.63 with HLA-A*31:01 (setting [4]); 7.94 in the assay with HLA-A*68:01 (setting [4]); 9.04 with HLA-A*11:01 (setting [4]); 6.73 with HLA-A*03:01 (setting [4]).
The matching figures for KLQARNIQK: 6.03, 7.87, 6.77, 7.75 and 8.10.
The like results for VLPHLCLDY were, in that order, 5.70, 5.11, 4.82, 6.38 and 6.99.
The like results for MIIGHIGHHY were, in that order, not above 4.26, 6.82, 7.71, 6.99 and 7.33.
On to RFWELVDRER, for which, in the assay with HLA-A*31:01 (setting [5]), the pKd is 9.46.
Consider SDGTFKIGLH, for which the pKd with HLA-A*33:01 (setting [6]) was not above 4.32; with HLA-A*31:01 (setting [6]), not above 4.44.
For TVKPGNFNK, the negative logarithm of the Kd (pKd) in the assay with HLA-A*33:01 (setting [1]) is 6.00; with HLA-A*31:01 (setting [1]) it was 7.38; in the assay with HLA-A*68:01 (setting [1]) it was 6.91; with HLA-A*11:01 (setting [1]), 7.48; with HLA-A*03:01 (setting [1]) it was 7.09.
On to HSGVDVFYK, for which, in the assay with HLA-A*11:01 (setting [3]), the pKd is 6.77.
In the case of GADPNACDK, the pKd in the assay with HLA-A*33:01 (setting [4]) was 5.08; with HLA-A*31:01 (setting [4]), 5.42; in the assay with HLA-A*68:01 (setting [4]), 7.04; with HLA-A*11:01 (setting [4]) it was 5.20; with HLA-A*03:01 (setting [4]), not above 4.42.
The like results for CTDESRDRK were, in that order, not above 4.11, not above 4.26, 6.77, 6.66 and 5.22.
The matching figures for SSKGLACYR: 7.59, 7.42, 8.27, 7.09 and 4.89.
The matching figures for SFKSINKVY: not above 4.11, 5.67, 5.16, 5.56 and 5.74.
For RLGVRATRK, in the assay with HLA-A*68:01 (source organism: Hepacivirus hominis), the pKd was not above 4.10.
As to ISQGAGWSLK, the pKd with HLA-A*11:01 (setting [5]) is 6.67; with HLA-A*03:01 (setting [5]), 6.70.
With ELALTDVEK, the negative logarithm of the Kd (pKd) with HLA-A*33:01 (setting [4]) was 5.24; with HLA-A*31:01 (setting [4]) it was 5.01; with HLA-A*68:01 (setting [4]), 8.94; with HLA-A*11:01 (setting [4]), 6.29; with HLA-A*03:01 (setting [4]) it was 5.81.
The like results for IFVDTMSIY were, in that order, not above 4.54, 5.17, 6.05, 6.04 and 4.74.
The like results for NFFTELENK were, in that order, 4.95, 5.14, 5.89, 5.77 and not above 4.16.
Consider TIEILRNYLR, for which the pKd was 7.56 with HLA-A*33:01 (setting [4]); 7.68 in the assay with HLA-A*31:01 (setting [4]); 8.79 with HLA-A*68:01 (setting [4]); 7.31 with HLA-A*11:01 (setting [4]); 5.63 with HLA-A*03:01 (setting [4]).
The like results for QISRVNDLNR were, in that order, 6.04, 6.91, 7.06, 6.47 and 5.71.
For the sequence GMSYSMCTGK, the pKd with HLA-A*11:01 (setting [5]) is 6.36; in the assay with HLA-A*03:01 (setting [5]), 7.51.
For the sequence ITFLRPVLK, the pKd in the assay with HLA-A*33:01 (setting [4]) was 7.07; with HLA-A*31:01 (setting [4]) it was 8.12; with HLA-A*68:01 (setting [4]) it was 8.94; in the assay with HLA-A*11:01 (setting [4]) it was 8.19; in the assay with HLA-A*03:01 (setting [4]), 8.34.
With ISYDPKFEK, the pKd in the assay with HLA-A*11:01 (setting [3]) was 7.00; with HLA-A*03:01 (setting [3]), 6.94.
In the case of DIKLDAVLDR, the pKd is 6.81 with HLA-A*33:01 (setting [4]); 4.75 with HLA-A*31:01 (setting [4]); 6.33 in the assay with HLA-A*68:01 (setting [4]); not above 4.16 with HLA-A*11:01 (setting [4]); not above 4.38 with HLA-A*03:01 (setting [4]).
In the case of LAIKNYYRK, the pKd is 5.84 in the assay with HLA-A*33:01 (setting [4]); 6.11 with HLA-A*31:01 (setting [4]); 7.90 in the assay with HLA-A*68:01 (setting [4]); 7.12 with HLA-A*11:01 (setting [4]); not above 4.34 with HLA-A*03:01 (setting [4]).
The matching figures for ISFKSINKVY: not above 4.20, 5.00, 5.18, 4.91 and 5.60.
Regarding FLKSGAVVK, the pKd with HLA-A*33:01 (setting [4]) was 4.71; with HLA-A*31:01 (setting [4]), 5.32; with HLA-A*68:01 (setting [4]), 7.36; in the assay with HLA-A*11:01 (setting [4]), 6.46; with HLA-A*03:01 (setting [4]), 7.87.
The matching figures for SLVKKNKKR: not above 4.11, not above 4.11, not above 4.11, not above 4.11 and not above 4.11.
The like results for EIIGGNDMY were, in that order, not above 4.11, not above 4.11, 7.26, not above 4.45 and 5.27.
The like results for PVSMTYLYNK were, in that order, not above 4.15, 5.21, 4.89, 6.97 and 5.92.
For the sequence RFWELVDKER, the pKd with HLA-A*31:01 (setting [3]) was 8.28.
Consider LTNKHCLNNY, for which the pKd with HLA-A*33:01 (setting [4]) was not above 4.18; with HLA-A*31:01 (setting [4]), 5.35; with HLA-A*68:01 (setting [4]) it was not above 4.67; with HLA-A*11:01 (setting [4]), 5.68; in the assay with HLA-A*03:01 (setting [4]) it was 5.86.
On to TIKYSNDNR, for which the pKd is 6.94 with HLA-A*33:01 (setting [4]); 7.71 in the assay with HLA-A*31:01 (setting [4]); 8.52 with HLA-A*68:01 (setting [4]); 6.64 with HLA-A*11:01 (setting [4]); 4.81 with HLA-A*03:01 (setting [4]).
The like results for RVVVQIDPEY were, in that order, not above 4.15, not above 4.15, 5.92, not above 4.63 and 4.85.
In the case of NIILSKIPY, the pKd with HLA-A*33:01 (setting [4]) is 5.01; with HLA-A*31:01 (setting [4]), 4.84; in the assay with HLA-A*68:01 (setting [4]), 6.11; with HLA-A*11:01 (setting [4]), 6.26; with HLA-A*03:01 (setting [4]), 5.93.
The matching figures for DVKASMLEKY: 4.78, not above 4.44, 6.25, 5.31 and not above 4.61.
Take AVAPSMTMR: the pKd with HLA-A*11:01 (setting [5]) is 7.48.
SRIFEELVWK: the pKd in the assay with HLA-A*33:01 (setting [7]) was not above 4.28; with HLA-A*31:01 (setting [7]) it was 5.44; with HLA-A*68:01 (setting [7]), 6.32; with HLA-A*11:01 (setting [7]) it was 6.59; with HLA-A*03:01 (setting [7]), 6.70.
As for STGSQLAKR, the pKd in the assay with HLA-A*31:01 (setting [2]) was 6.67.
For GLLNGQGPMK, the negative-log Kd (pKd) with HLA-A*03:01 (setting [8]) is 8.02.
For the sequence IMDLHPGAGK, in the assay with HLA-A*03:01 (setting [5]), the pKd was 7.39.
Regarding FSNTIQSYK, the pKd is 5.70 in the assay with HLA-A*33:01 (setting [4]); 7.11 with HLA-A*31:01 (setting [4]); 8.23 in the assay with HLA-A*68:01 (setting [4]); 7.96 in the assay with HLA-A*11:01 (setting [4]); 7.59 with HLA-A*03:01 (setting [4]).
With EDTMTYKCPR, the pKd in the assay with HLA-A*33:01 (setting [2]) is 6.09.
For MSHVKSVTK, the pKd in the assay with HLA-A*33:01 (setting [4]) was 5.71; with HLA-A*31:01 (setting [4]), 7.70; in the assay with HLA-A*68:01 (setting [4]), 8.05; in the assay with HLA-A*11:01 (setting [4]), 8.09; with HLA-A*03:01 (setting [4]) it was 7.73.
The matching figures for TLNGIMMNER: 5.84, 6.97, 6.13, 5.88 and 6.65.
With SINSEYIESK, the pKd with HLA-A*33:01 (setting [4]) was not above 4.15; in the assay with HLA-A*31:01 (setting [4]), not above 4.15; in the assay with HLA-A*68:01 (setting [4]), 5.59; with HLA-A*11:01 (setting [4]), 7.26; with HLA-A*03:01 (setting [4]), 5.11.
For the sequence LLFADINGK, the pKd with HLA-A*33:01 (setting [1]) was not above 4.29; with HLA-A*31:01 (setting [1]), 5.59; in the assay with HLA-A*68:01 (setting [1]) it was 6.92; with HLA-A*11:01 (setting [1]), 8.06; with HLA-A*03:01 (setting [1]), 7.51.
Take VTFKVPHAKR: the pKd with HLA-A*68:01 (setting [3]) was 7.67.
Take GISLGLILLK: the pKd in the assay with HLA-A*11:01 (setting [3]) is 7.10; in the assay with HLA-A*03:01 (setting [3]), 7.78.
Consider GAGLAFSLMK, for which the pKd with HLA-A*11:01 (setting [2]) was 7.03.
Turning to LTNTTTESR, the pKd with HLA-A*68:01 (setting [5]) is 7.13.
In the case of RLKMDKLELK, the pKd in the assay with HLA-A*03:01 (setting [8]) is 7.46.
IFSLKDTLKR: the negative logarithm of the Kd (pKd) with HLA-A*33:01 (setting [8]) is 6.49.
In the case of LAMGIMMLK, the pKd in the assay with HLA-A*68:01 (setting [2]) is 7.69; with HLA-A*11:01 (setting [2]), 7.49; in the assay with HLA-A*03:01 (setting [2]), 7.12.
Regarding GFFLRKLTSR, in the assay with HLA-A*31:01 (setting [8]), the pKd is 8.87.
AMCLNTFVLK: the values for the pKd with HLA-A*11:01 (setting [9]) and with HLA-A*03:01 (setting [9]) were 7.63 and 8.03, respectively.
Consider LTYQNKVVK, for which the pKd with HLA-A*11:01 (setting [8]) is 7.15; in the assay with HLA-A*03:01 (setting [8]) it was 7.93.
For YQNKVVKVQR, the pKd with HLA-A*33:01 (setting [8]) is 6.15.
As to MLQGRGPLK, the pKd is 6.91 with HLA-A*11:01 (setting [5]) and not below 9.00 with HLA-A*03:01 (setting [5]).
Turning to EYRLRGEAR, the pKd in the assay with HLA-A*33:01 (setting [5]) is 7.35.
In the case of LMSGKGIGK, the pKd with HLA-A*03:01 (setting [5]) is 7.12.
As to KAERVIDPR, in the assay with HLA-A*31:01 (setting [5]), the pKd is 7.25.
With RQMEGEGVFK, the pKd in the assay with HLA-A*03:01 (source organism: Dengue virus 2 Peru/IQT2913/1996) was 7.62.
On to VQTKPGLFK, for which the pKd with HLA-A*11:01 (setting [5]) was 6.99; with HLA-A*03:01 (setting [5]), 6.84.
ALFEPEREK: the pKd in the assay with HLA-A*03:01 (setting [2]) is 7.23.
As to EVHWNYKER, in the assay with HLA-A*68:01 (setting [3]), the pKd was 7.82.
In the case of SGNDIANCLR, the pKd with HLA-A*33:01 (setting [2]) was 6.85.
